Experimental data published in patent publication US11549134B2, “Modified amadoriase and method for producing the same, agent for improving surfactant resistance of amadoriase and composition for measuring HbA1c using the same” (Kikkoman Corporation, priority 2013, dated 2023).

How the values were obtained:
[1] = Surfactant resistance (residual activity) of CFP-D multiple variants, 0.04% CTAC; assay type: biochemical; details: 30°C, 5 minutes, crude enzyme
Method: An amadoriase crude enzyme solution or an amadoriase purified sample is diluted with a 30 mM MES/21 mM Tris buffer solution (pH6.5) so as to have a concentration of about 1.0 U/ml. To this, CTAC (for example, manufactured by Tokyo Kasei Kogyo Co., Ltd.) is added so as to obtain a final concentration 0.01% (w/v) or 0.04%. The resultant mixture is heated at 30° C. for 5 minutes. After heating, the mixture is diluted double with a 10 mM phosphate buffer (pH7.0) containing 0.15% BSA to prepare a sample. The enzyme activities of the sample before and after a surfactant treatment are measured by the method described in Section B above. The ratio of activity of the sample after the surfactant treatment relative to the activity of the sample before the surfactant treatment (regarded as 100), i.e., the residual activity (%), is obtained. In this manner, surfactant resistance is evaluated. […]

[2] = Measurement of fructosyl peptide sample (αFVH) under mixing of CTAC, change in absorbance at 751 nm; assay type: biochemical
Method: The purified enzyme of CFP-T7 and CFP-D7 obtained in Example 3-2 was used to measure a sample as shown below. The activity values of CFP-T7 and CFP-D7 were determined using (reagent 1) adjusted to pH 7.0 with αFVH at a final concentration of 5 mM as a substrate according to the method for measuring amadoriase activity.
(Reagent 4) αFVH (125 mg) was dissolved in ion-exchanged water, the volume of the solution was fixed to 10 ml, and thereby a 30 mM substrate solution was obtained. In addition, the resultant was diluted by 1/714 with a CTAC solution to provide a 42 μM αFVH/0% to 0.2% CTAC solution.
(Reagent 6) (50 μl) was added to a mixed solution of 135 μl of (reagent 5) warmed at 37° C. for 5 minutes in advance and 25 μl of the sample prepared in (11) above to start reaction, and absorbance at a wavelength of 751 nm after reaction at 37° C. for 5 minutes was measured using an automated analyzer, Bio Majesty JCA-BM1650 (from JEOL Ltd.). Absorbance (reagent blank) at a wavelength of 751 nm measured by a similar operation for (reagent 4) prepared using ion-exchanged water in place of the substrate solution was used as a control to calculate the amount of change in absorbance (difference) when each sample was measured, using the following equation. The final concentration of a colorimetric substrate, DA-64, was 0.15 mM; the final concentration of αFVH in the case of the presence of a substrate was 5 μM; and the length (optical path) of the cell used for absorbance measurement was 1 cm. Amount of change in absorbance=ΔAes−Ae0
The amount of change in absorbance when αFVH/0% to 0.2% CTAC were used as samples was calculated.
The purified preparations of amadoriases obtained as described above were used as samples to measure αFVH under the mixing of CTAC using PnFX and NvFX as in Example 5.

B1: CFP-T7: amadoriase derived from the genus Coniochaeta, SEQ ID NO: 1; triple variant with mutations at positions 272, 302 and 388 (protein, listed as Coniochaeta sp.)
chain: MTSNRADTRVIVVGGGGTIGSSTALHLVRSGYAPANITVLDTFEIPSAQSAGHDLNKIMGIRLRNKVDLQMSLEARQMWKEDELFQPFFHNTGRMDCEHTPEGIEDLKKQYQALHDAGAGLEKTHAWLDNEDEILSKMPLLQRDQIQGWKAIWSQDGGWLAAAKAINAIGQFLKERGVKFGFGGAGSFKQPLFDDEGTTCIGVETADGTKYYADKVVLAAGAWSPTLVDLEDQCCSKAWVYAHIQLTPEEAAEYKGVPVVYNGEFGFFFEPDEFGVIKVCDEFPGFSRFKEHQPYGAPSPKRISVPRSHAKHPTDTYPDASEVSIKKAIATFLPRFQDKELFNRALCWCTDTADAALLMCEHPKWKNFILATGDSGHSFKILPNVGKYVVELIEGRLPEEMAYQWRWRPGGDALKSRRAAPPKDLADMPGWKHDPKL
- Residual Activity(%) [1]: 2.27%
- Amount of Change in Absorbance at Wavelength of 751 nm under Mixing of Each Concentration of CTAC ([2]; Mixing of CTAC 0%, as in Example 5, Table 7): 0.150
- Amount of Change in Absorbance at Wavelength of 751 nm under Mixing of Each Concentration of CTAC ([2]; Mixing of CTAC 0%, αFVH final 5 μM, 37°C, 5 minutes, Table 5): 0.150
- Amount of Change in Absorbance at Wavelength of 751 nm under Mixing of Each Concentration of CTAC ([2]; Mixing of CTAC 0.005%, αFVH final 5 μM, 37°C, 5 minutes, Table 5): 0.111
- Amount of Change in Absorbance at Wavelength of 751 nm under Mixing of Each Concentration of CTAC ([2]; Mixing of CTAC 0.01%, as in Example 5, Table 7): 0.077
- Amount of Change in Absorbance at Wavelength of 751 nm under Mixing of Each Concentration of CTAC ([2]; Mixing of CTAC 0.01%, αFVH final 5 μM, 37°C, 5 minutes, Table 5): 0.077
- Amount of Change in Absorbance at Wavelength of 751 nm under Mixing of Each Concentration of CTAC ([2]; Mixing of CTAC 0.02%, as in Example 5, Table 7): 0.031
- Amount of Change in Absorbance at Wavelength of 751 nm under Mixing of Each Concentration of CTAC ([2]; Mixing of CTAC 0.02%, αFVH final 5 μM, 37°C, 5 minutes, Table 5): 0.031
- Amount of Change in Absorbance at Wavelength of 751 nm under Mixing of Each Concentration of CTAC ([2]; Mixing of CTAC 0.04%, as in Example 5, Table 7): 0.005
- Amount of Change in Absorbance at Wavelength of 751 nm under Mixing of Each Concentration of CTAC ([2]; Mixing of CTAC 0.04%, αFVH final 5 μM, 37°C, 5 minutes, Table 5): 0.005
